Results from paper PMC9482650, “Quantitative fragmentomics allow affinity mapping of interactomes” (Nature Communications, 2022).
Numbering of substitutions follows the chain as printed.

Tests used:
Assay in all cases: holdup assay
Parameters in all cases: key: below the threshold = too weak to quantify, mostly under pKd 3.1 to 4
Settings in all cases: plain residues with an end cap or a label only (N-terminal biotin on a linker: ttds)
[1] = molecular target: T1, GRIP1_5, Q9Y3R0
T1 sequence (Q9Y3R0 568-668, limits assumed, looked up): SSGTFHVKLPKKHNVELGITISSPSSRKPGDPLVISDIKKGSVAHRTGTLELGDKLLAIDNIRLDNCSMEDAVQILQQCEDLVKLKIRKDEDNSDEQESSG

[2] = molecular target: T2, APBA3_1, O96018
T2 sequence (O96018 389-490, limits assumed, looked up): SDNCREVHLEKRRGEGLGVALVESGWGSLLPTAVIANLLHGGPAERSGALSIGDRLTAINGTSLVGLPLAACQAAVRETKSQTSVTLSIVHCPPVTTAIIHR

[3] = molecular target: TJP2_1, Q9UDY2
Sequence of TJP2_1, Q9UDY2 (Q9UDY2 24-128): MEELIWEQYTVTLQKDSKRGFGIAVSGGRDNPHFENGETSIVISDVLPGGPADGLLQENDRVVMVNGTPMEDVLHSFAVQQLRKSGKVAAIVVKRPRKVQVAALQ

[4] = molecular target: T3, GRIP1_2, Q9Y3R0
T3 sequence (Q9Y3R0 145-248, limits assumed, looked up): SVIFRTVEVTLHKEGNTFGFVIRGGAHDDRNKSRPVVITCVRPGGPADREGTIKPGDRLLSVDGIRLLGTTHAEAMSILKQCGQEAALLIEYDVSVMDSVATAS

[5] = molecular target: Inadl_6, Q8NI35
Sequence of Inadl_6, Q8NI35 (Q8NI35 1058-1167): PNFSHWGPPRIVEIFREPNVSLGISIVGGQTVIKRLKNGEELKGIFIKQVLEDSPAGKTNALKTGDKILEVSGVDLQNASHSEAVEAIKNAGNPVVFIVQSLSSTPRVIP

[6] = molecular target: DLG1_2, Q12959
Sequence of DLG1_2, Q12959 (Q12959 314-412): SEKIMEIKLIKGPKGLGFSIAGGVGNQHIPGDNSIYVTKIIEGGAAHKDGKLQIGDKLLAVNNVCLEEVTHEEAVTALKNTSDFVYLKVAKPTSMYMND

[7] = molecular target: T4, LIN7B, Q9HAP6
T4 sequence (Q9HAP6 88-185, limits assumed, looked up): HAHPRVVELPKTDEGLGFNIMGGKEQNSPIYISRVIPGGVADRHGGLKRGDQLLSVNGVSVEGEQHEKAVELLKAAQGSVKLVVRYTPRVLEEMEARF

[8] = molecular target: T5, GRIP1_4, Q9Y3R0
T5 sequence (Q9Y3R0 467-571, limits assumed, looked up): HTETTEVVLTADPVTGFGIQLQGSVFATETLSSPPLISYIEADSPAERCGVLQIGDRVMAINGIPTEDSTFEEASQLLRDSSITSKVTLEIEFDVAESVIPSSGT

[9] = molecular target: MAGI1_1, Q96QZ7
Sequence of MAGI1_1, Q96QZ7 (Q96QZ7 1-106): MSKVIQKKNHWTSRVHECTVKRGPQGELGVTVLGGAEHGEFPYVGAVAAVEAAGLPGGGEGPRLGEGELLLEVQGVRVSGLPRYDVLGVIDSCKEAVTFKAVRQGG

[10] = molecular target: FRMPD2_3, Q68DX3
Sequence of FRMPD2_3, Q68DX3 (Q68DX3 1073-1166): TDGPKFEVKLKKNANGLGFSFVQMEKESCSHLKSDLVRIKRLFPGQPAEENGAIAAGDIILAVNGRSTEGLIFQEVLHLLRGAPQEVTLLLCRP

[11] = molecular target: T6, CARD11, Q9BXL7
T6 sequence (Q9BXL7 662-765, limits assumed, looked up): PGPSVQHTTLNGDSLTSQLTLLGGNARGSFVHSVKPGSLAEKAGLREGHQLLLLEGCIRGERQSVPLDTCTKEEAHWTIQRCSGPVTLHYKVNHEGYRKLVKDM

[12] = molecular target: DLG2_2, Q15700
Sequence of DLG2_2, Q15700 (Q15700 189-283): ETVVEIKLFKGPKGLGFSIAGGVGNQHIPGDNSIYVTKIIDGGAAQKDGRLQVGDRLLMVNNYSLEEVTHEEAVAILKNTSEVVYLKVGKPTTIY

[13] = molecular target: MAGI2_2, Q86UL8
Sequence of MAGI2_2, Q86UL8 (Q86UL8 410-522): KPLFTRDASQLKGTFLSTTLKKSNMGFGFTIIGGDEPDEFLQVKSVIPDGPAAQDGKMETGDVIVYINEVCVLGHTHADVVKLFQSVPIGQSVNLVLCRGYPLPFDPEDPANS

[14] = molecular target: GIPC2, Q8TF65
Sequence of GIPC2, Q8TF65 (Q8TF65 112-203): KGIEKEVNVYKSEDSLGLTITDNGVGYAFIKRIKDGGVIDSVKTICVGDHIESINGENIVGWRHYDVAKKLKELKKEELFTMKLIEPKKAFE

[15] = molecular target: GRIP2_6, Q9C0E4
Sequence of GRIP2_6, Q9C0E4 (Q9C0E4 648-740): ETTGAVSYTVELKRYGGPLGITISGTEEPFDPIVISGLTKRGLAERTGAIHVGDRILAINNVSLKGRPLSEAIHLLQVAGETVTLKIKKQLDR

[16] = molecular target: NHERF4_2, Q86UT5
Sequence of NHERF4_2, Q86UT5 (Q86UT5 220-308): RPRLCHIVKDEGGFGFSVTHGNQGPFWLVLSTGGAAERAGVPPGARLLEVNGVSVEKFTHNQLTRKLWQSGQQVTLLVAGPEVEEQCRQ

[17] = molecular target: Inadl_8, Q8NI35
Sequence of Inadl_8, Q8NI35 (Q8NI35 1425-1530): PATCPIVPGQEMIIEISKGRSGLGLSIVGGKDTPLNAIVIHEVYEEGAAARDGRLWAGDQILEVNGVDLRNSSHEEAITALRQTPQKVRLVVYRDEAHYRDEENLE

[18] = molecular target: LNX1_2, Q8TBB1
Sequence of LNX1_2, Q8TBB1 (Q8TBB1 371-470): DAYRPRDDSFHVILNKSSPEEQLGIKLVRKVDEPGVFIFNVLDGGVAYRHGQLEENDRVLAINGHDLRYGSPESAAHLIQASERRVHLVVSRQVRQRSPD

[19] = molecular target: T7, MPP7, Q5T2T1
T7 sequence (Q5T2T1 134-230, limits assumed, looked up): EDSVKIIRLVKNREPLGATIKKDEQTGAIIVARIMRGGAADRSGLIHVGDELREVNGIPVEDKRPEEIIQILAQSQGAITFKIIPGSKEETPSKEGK

[20] = molecular target: GRIP2_7, Q9C0E4
Sequence of GRIP2_7, Q9C0E4 (Q9C0E4 934-1023): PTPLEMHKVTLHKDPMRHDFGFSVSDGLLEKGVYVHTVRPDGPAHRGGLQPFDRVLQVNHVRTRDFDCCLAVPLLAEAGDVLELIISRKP

[21] = molecular target: T8, LIN7A, O14910
T8 sequence (O14910 103-200, limits assumed, looked up): T4 sequence (Q9HAP6 88-185, limits assumed, looked up) with A2S, I20V, V35I, D42E, Q65H, Q77K, G78D, R89K

[22] = molecular target: T9, MPDZ_10, O75970
T9 sequence (O75970 1624-1722, limits assumed, looked up): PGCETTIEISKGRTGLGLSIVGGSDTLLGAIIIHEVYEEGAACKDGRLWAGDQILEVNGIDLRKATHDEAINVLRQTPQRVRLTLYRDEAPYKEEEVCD

[23] = molecular target: T10, PARD3B_1, Q8TEW8
T10 sequence (Q8TEW8 196-299, limits assumed, looked up): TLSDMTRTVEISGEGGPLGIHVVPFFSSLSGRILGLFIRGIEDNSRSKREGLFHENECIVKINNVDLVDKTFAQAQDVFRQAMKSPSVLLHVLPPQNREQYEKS

[24] = molecular target: T11, MPDZ_5, O75970
T11 sequence (O75970 695-796, limits assumed, looked up): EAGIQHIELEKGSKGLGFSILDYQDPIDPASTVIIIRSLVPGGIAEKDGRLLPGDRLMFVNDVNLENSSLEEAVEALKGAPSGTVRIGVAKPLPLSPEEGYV

[25] = molecular target: MAGI2_6, Q86UL8
Sequence of MAGI2_6, Q86UL8 (Q86UL8 1141-1229): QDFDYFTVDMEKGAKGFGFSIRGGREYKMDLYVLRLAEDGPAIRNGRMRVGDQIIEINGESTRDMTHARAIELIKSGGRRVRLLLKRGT

Measured: pKd

GRLLGLETNV [ARHGEF26, Q96DR7]
4.39: [25]
5.18: [6]
3.72: [13]
4.88: [12]
below the threshold: all other assays above
